In the supplement of paper PMC12042874:
± gives the uncertainty stated by the source.

Assay: amyloid nucleation score (Sup35N fusion, yeast selection) (log enrichment); library NNK3; higher = more nucleation; inactive = no reads after selection
Method in brief: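 After 24 hours of induction with 100 μM copper sulfate, psi-negative yeast expressing peptides of 20 random codons fused to Sup35N were grown for 7 days at 30°C on medium lacking adenine and uracil. Input and output plasmid inserts were sequenced with Illumina, and sequences with under 100 input reads were discarded. Scores for nucleation are the DiMSum log enrichment of output over input reads, centred on the mode score of non-aggregating sequences.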

| Substance | amyloid nucleation score |
| --- | --- |
| TPYGRIFWADDIFNSVAICL | inactive |
| LCVYTYTSTHAVFFIVFDSR | inactive |
| LLCRE | inactive |
| SDLTMIRVPIFITLRPPHSS | inactive |
| IPEYYKIRWRYGACRSCIVI | inactive |
| FLVLVGIGIGMYLFVNHYVD | 1.64 ± 0.088 |
| FDLSLDSMKFEAFYFVVRLV | inactive |
| LNDLCKMPVSLFIHGLCLMT | inactive |
| GSGTGNALLQLGLTSIFTFS | inactive |
| CVSSLIAKMGIVGCDGCYKG | inactive |
| NYGQALHWLLRGGSMWSQGT | inactive |
| AQILSYVVSYSDPERHFSVM | inactive |
| SCRNCDYLLCGNYHT | inactive |
| SVYYTPCAFFRLIEGNLEGL | inactive |
| LRVRLCSGSSRIWLEVLVRR | inactive |
| WIPHPEFGVSIGIV | inactive |
| FLMNDSCDRTIWFNVFLSNS | 0.7 ± 0.18 |
| DAVGCNILACDSGGRDWTGG | -0.744 ± 1.2 |
| SSSNTRFVGAERCVGSWCGS | inactive |
| IDSLSAIGKSWTQGESRSDR | inactive |
| QFVCHHGSPAFPNDGVAKLL | inactive |
| GKFVRLPPISRISHLWNCEL | inactive |
| TPGSYLGYCIPRFIGLQYDP | inactive |
| TNANRIGMGYDMNNYSTHYR | inactive |
| DTLYGDYQGQRYSVALMKCV | inactive |
| IRTSLSSVLDVCHTSNTI | inactive |

| Substance | amyloid nucleation score |
| --- | --- |
| ISDPRLGKVPLWDMSSIVYV | inactive |
| DMKNWPKDYQ | inactive |
| SVLLHLNRNVMWTMPSRGAF | inactive |
| LKKVCDECRFSESPLVPEVA | 1.06 ± 0.13 |
| YFWEASGFHFIRLVTTASTQ | inactive |
| MLSSCRVFRLFCFNCVTLNR | 0.816 ± 0.16 |
| MAIFKLFVPFIFLIEFCYMV | inactive |
| HKPCRCKTMLWDLAIVGSLE | inactive |
| LYDLNLSDLMNCRYTIRGWF | inactive |
| SYGDPCQAKGQIRIVYGWHW | 0.308 ± 0.25 |
| QGYMFFCHYIDICS | inactive |
| MGGVCMSMS | inactive |
| HIFDNSYIFLDLLLARKY | 1.87 ± 0.061 |
| ICYIPY | inactive |
| TSTYSFCTRVWYPASIIFGR | inactive |
| YYWCFSF | 2.23 ± 0.06 |
| GDITSEYV | inactive |
| LIRTIEYLGRRISSQGCLHT | inactive |
| VVCIHLVVDTVC | inactive |
| LVYPSFLLFKSIASHDSTGD | inactive |
| QRSSHGPLGCLSDLQLNTLR | -0.882 ± 1.4 |
| LAAICYEVFGCGTWMGC | inactive |
| PMPCIYVSGVWHRVLLCFLS | inactive |
| LWYTSSSRGWPISLSSMW | inactive |
| SFSYNAQLYTQVVMSRYKMR | -0.193 ± 0.48 |
| LGPMAGRVSRYCNAARLTRC | -0.999 ± 2.4 |

| Substance | amyloid nucleation score |
| --- | --- |
| VTKARSHYTVSVLMDEKCMG | inactive |
| NGMAFGSRVNRLGGCSEVEV | inactive |
| RCYNHFHSI | inactive |
| KVGFLFDGLFIFGGR | inactive |
| NRAVNFIVWWMYL | inactive |
| QARVRYDASTLLFGCTFC | 2.65 ± 0.079 |
| GYLSFIVFMGGRPSLSGNSI | 1.42 ± 0.14 |
| VWIRRTCDFNQYRESDLLIR | inactive |
| SDGSCRVRAFYSYKGALVSF | inactive |
| MSIVIYARLTWNYDSVFSFG | inactive |
| TGMNNFMKCLGYMSAHVRLI | inactive |
| IAEGFNTVGDLWNIGCCDSG | 0.154 ± 0.33 |
| IQLWRTADGVYKVSGVNK | inactive |
| VYSSVEFCISEKTHLKVWVL | inactive |
| SRCPRMGYQHALRRWLLPVW | inactive |
| SYRHCNWDAKKVAIGTVVWD | inactive |
| SEKYATSKYCQVTFGVTLPS | inactive |
| MPCLYALLYG | inactive |
| NKVFMEDQGLKVHWV | inactive |
| KKGGLLLLNKYN | inactive |
| KANDMVFMGGGVLKLGRTLA | inactive |
| YVLKLSRYMPN | inactive |
| CVSDNSS | -0.003 ± 0.8 |
| IHIGTPFRGSHTFASVRRK | inactive |
| LRHWRMRLSIGN | inactive |
| NSFDNFFSLNLNTGAYY | inactive |
